Experimental data from patent publication US20120114595A1 (OTSUKA CHEMICAL, published 2012).

What was measured:
[1] = molecular target: T1, AILIM ligand B7-H2/Fc Chimera (R&D Systems, Inc.), biotinylated (UniProt O75144 19-258, biotinylated using EZ-Link NHS-PEO Solid Phase Biotinylation Kit (sites not given)); assay: ELISA, coated synthetic AILIM against coated ICOS/Fc as reference, biotinylated B7-H2/Fc
T1 construct: Bought reagent; also called B7RP-1; Fc part of the bought chimera not given
T1 sequence (looked up): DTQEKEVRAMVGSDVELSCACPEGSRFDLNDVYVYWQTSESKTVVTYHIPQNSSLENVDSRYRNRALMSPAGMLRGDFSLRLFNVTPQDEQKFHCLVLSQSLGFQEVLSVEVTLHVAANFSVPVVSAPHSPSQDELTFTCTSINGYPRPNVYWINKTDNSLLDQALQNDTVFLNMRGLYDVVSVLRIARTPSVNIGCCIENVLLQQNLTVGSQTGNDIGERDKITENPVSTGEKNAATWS
Method: (§1) Dilution series of each evaluation sample solution of synthetic AILIM were added to an ELISA plate, and each well was coated therewith by reaction at 37° C. for 2 hours. After the reaction, the sample solution was discarded, D-PBS (−) containing 0.4% bovine serum albumin and 0.05% Tween 20 (blocking solution) was added at a concentration of 150 μL/well, and each well was blocked by reaction at 37° C. for 1 hour. The plate thus blocked was washed 3 times with D-PBS (−) containing 0.1% bovine serum albumin and 0.05% Tween 20 (washing buffer). An AILIM ligand B7-H2/Fc Chimera (R&D Systems, Inc.) biotinylated using EZ-Link NHS-PEO Solid Phase Biotinylation Kit was added at a concentration of 200 ng/50 μL/well and reacted at 37° C. for 1.5 hours. Unreacted ligand molecules were removed by washing 3 times with the washing buffer.
(§2) Subsequently, streptavidin-labeled horseradish peroxidase (BD-Pharmingen) diluted 1000-fold with D-PBS (−) containing 0.1% bovine serum albumin was added at a concentration of 100 μL/well and reacted at 37° C. for 1 hour. After the reaction, the plate was washed with 3 times with the washing buffer to remove unreacted streptavidin-labeled horseradish peroxidase. […] The reaction was terminated by the addition of 1% SDS at a concentration of 100 μL/well, and the OD value at 405 nm was measured using a plate reader (VersaMax, Molecular Devices, LLC). […]

[2] = molecular target: T1, AILIM ligand B7-H2/Fc Chimera (R&D …); assay: ELISA, coated synthetic AILIM (lot a, 0.004178 nmol/ml) against coated ICOS/Fc as reference, biotinylated B7-H2/Fc
Method: as §1, §2

[3] = molecular target: T1, AILIM ligand B7-H2/Fc Chimera (R&D …); assay: ELISA, coated synthetic AILIM (lot a, 0.06684 nmol/ml) against coated ICOS/Fc as reference, biotinylated B7-H2/Fc
Method: as §1, §2

[4] = molecular target: T1, AILIM ligand B7-H2/Fc Chimera (R&D …); assay: ELISA, coated synthetic AILIM (lot a, 0.01671 nmol/ml) against coated ICOS/Fc as reference, biotinylated B7-H2/Fc
Method: as §1, §2

fold ICOS/Fc concentration required for equivalent ligand binding activity [1]: ~10 fold | B/A (ICOS/Fc concentration for the same absorbance over synthetic AILIM concentration) [2]: 8.88 fold | B/A (ICOS/Fc concentration for the same absorbance over synthetic AILIM concentration) [3]: 11.4 fold | B/A (ICOS/Fc concentration for the same absorbance over synthetic AILIM concentration) [4]: 6.05 fold
B1: oligosaccharide chain-added extracellular domain of AILIM (synthetic AILIM), 120-amino acid extracellular domain of human AILIM with an asialo-nonasaccharide … (receptor)
chain: EINGSANYEMFIFHNGGVQILCKYPDIVQQFKMQLLKGGQILCDLTKTKGSGNTVSIKSLKFCHSQLSNNSVSFFLYNLDHSHANYYFCNLSIFDPPPFKVTLTGGYLHIYESQLCCQLK
modifications: asialo-nonasaccharide chain on Asn at position 69 (residue 89 by counting from the N-terminal Met of AILIM); no oligosaccharide chain at positions 3 and 90
notes: Made by chemical synthesis (Fmoc solid phase, KCL/NCL ligation), Acm groups removed, folded by dialysis in two dialysis tubes (lot a and lot b); Coated on the ELISA plate in the assays; also called synthetic AILIM lot. a; synthetic AILIM lot. b
